PMC4856295 (Nature, 2016)
One block for each binder: values may come before it.

Tests used:
[1] = biological target: TATA-binding protein (TBP), subunit of endogenous human TFIID (human, UniProt P20226 1-339); experiment: cryo-EM structure
cryo-EM structure = biological target: the molecule itself; experiment: cryo-EM structure

TATA-binding protein (TBP), subunit of endogenous human TFIID, sequence (P20226 whole entry): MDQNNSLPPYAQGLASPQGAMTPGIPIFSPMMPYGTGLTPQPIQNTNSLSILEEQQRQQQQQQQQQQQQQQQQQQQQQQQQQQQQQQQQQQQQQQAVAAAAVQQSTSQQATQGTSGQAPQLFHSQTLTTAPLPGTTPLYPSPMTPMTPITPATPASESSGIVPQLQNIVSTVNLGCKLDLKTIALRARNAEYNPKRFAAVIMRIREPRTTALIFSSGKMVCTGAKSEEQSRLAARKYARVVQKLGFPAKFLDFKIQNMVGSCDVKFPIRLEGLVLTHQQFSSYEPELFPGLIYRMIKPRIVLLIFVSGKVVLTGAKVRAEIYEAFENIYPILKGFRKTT

binding result [1]: binds
B1: human TFIIA (conserved three-subunit core TFIIA) (complex)
chain 1: ANSANTNTVPKLYRSVIEDVINDVRDIFLDDGVDEQVLMELKTLWENKLMQSRAVDG
chain 2: GAEDGQVEEEPLNSEDDVSDEEGQELFDTENVVVCQYDKIHRSKNKWKFHLKDGIMNLNGRDYIFSKAIGDAEW
chain 3: AYQLYRNTTLGNSLQESLDELIQSQQITPQLALQVLLQFDKAINAALAQRVRNRVNFRGSLNTYRFCDNVWTFVLNDVEFREVTELIKVDKVKIVACDGKNTGSNTTE

B2: TAF6, subunit of endogenous human TFIID (natural protein)
chain: not shown
stoichiometry N (cryo-EM structure): 2
